# Numbering of substitutions follows the chain as printed. Names may count otherwise.
# T1: PfTrpA (Pyrococcus furiosus, UniProt Q8U094)
# T1 construct: made in house; host or cells: E. coli BL21 E. cloni EXPRESS
# T1 sequence (Q8U094 whole entry, looked up): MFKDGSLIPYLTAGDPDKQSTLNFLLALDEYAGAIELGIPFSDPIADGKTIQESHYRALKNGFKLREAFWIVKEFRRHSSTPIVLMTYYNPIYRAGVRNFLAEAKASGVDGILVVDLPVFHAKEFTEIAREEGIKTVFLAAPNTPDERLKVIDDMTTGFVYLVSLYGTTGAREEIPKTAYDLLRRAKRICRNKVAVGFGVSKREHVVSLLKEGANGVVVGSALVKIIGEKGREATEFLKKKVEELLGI
# T2: PfTrpA (Pyrococcus furiosus, UniProt Q8U094)
# T2 construct: made in house; host or cells: E. coli BL21 E. cloni EXPRESS
# T2 sequence (Q8U094 1-248): T1 sequence (Q8U094 whole entry, looked up)
# T2 sequence (Q8U093 1-388 partner): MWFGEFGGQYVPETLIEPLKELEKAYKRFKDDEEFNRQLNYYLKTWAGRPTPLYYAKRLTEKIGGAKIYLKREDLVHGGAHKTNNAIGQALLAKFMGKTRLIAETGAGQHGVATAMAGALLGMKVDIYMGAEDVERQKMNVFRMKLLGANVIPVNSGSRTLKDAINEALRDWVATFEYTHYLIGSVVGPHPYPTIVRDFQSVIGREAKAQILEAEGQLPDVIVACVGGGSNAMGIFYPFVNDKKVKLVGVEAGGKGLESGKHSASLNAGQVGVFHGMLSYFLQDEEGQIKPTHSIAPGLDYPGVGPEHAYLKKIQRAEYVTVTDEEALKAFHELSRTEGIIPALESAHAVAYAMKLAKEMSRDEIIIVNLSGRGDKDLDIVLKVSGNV
# B1: PfTrpB^0B2: PfTrpB with mutations P12L, E17G, I68V, F274S, T292S, T321A (protein)
# chain: MWFGEFGGQYVLETLIGPLKELEKAYKRFKDDEEFNRQLNYYLKTWAGRPTPLYYAKRLTEKIGGAKVYLKREDLVHGGAHKTNNAIGQALLAKFMGKTRLIAETGAGQHGVATAMAGALLGMKVDIYMGAEDVERQKMNVFRMKLLGANVIPVNSGSRTLKDAINEALRDWVATFEYTHYLIGSVVGPHPYPTIVRDFQSVIGREAKAQILEAEGQLPDVIVACVGGGSNAMGIFYPFVNDKKVKLVGVEAGGKGLESGKHSASLNAGQVGVSHGMLSYFLQDEEGQIKPSHSIAPGLDYPGVGPEHAYLKKIQRAEYVAVTDEEALKAFHELSRTEGIIPALESAHAVAYAMKLAKEMSRDEIIIVNLSGRGDKDLDIVLKVSGNVLEHHHHHH
# modifications: left off: small tags and cut ends
# notes: PfTrpB with mutations P12L, E17G, I68V, F274S, T292S, T321A
# B2: PfTrpB: wild-type β-subunit of tryptophan synthase from Pyrococcus furiosus, SEQ ID NO:2 (protein, listed as Pyrococcus furiosus)
# chain: B1 chain with L12P, G17E, V68I, S274F, S292T, A321T
# B3: PfTrpB^4D11: PfTrpB with mutations E17G, I68V, F274S, T292S, T321A (protein)
# chain: B1 chain with L12P
# modifications: left off: small tags and cut ends
# notes: PfTrpB with mutations E17G, I68V, F274S, T292S, T321A
# B4: PfTrpB^2G9: PfTrpB with mutation T292S (protein)
# chain: B1 chain with L12P, G17E, V68I, S274F, A321T
# modifications: left off: small tags and cut ends
# notes: PfTrpB with mutation T292S
# B5: TmTrpB^WT: wild-type TrpB from Thermotoga maritima, SEQ ID NO:6 (protein, listed as Thermotoga maritima)
# chain: MKGYFGPYGGQYVPEILMPALEELEAAYEEIMKDESFWKEFNDLLRDYAGRPTPLYFARRLSEKYGARIYLKREDLLHTGAHKINNAIGQVLLAKKMGKTRIIAETGAGQHGVATATAAALFGMECVIYMGEEDTIRQKPNVERMKLLGAKVVPVKSGSRTLKDAINEALRDWITNLQTTYYVIGSVVGPHPYPIIVRNFQKVIGEETKKQILEKEGRLPDYIVACVGGGSNAAGIFYPFIDSGVKLIGVEAGGEGLETGKHAASLLKGKIGYLHGSKTFVLQDDWGQVQVTHSVSAGLDYSGVGPEHAYWRETGKVLYDAVTDEEALDAFIELSRLEGIIPALESSHALAYLKKINIKGKVVVVNLSGRGDKDLESVLNHPYVRERIRLEHHHHHH
# Key:
# [1] = Kinetics of tryptophan formation monitored at 290 nm (continuous assay for Trp production); format: biochemical
# Experimental: Kinetics and UV-Vis Spectroscopy. Data were collected between 550 and 250 nm on a UV1800 Shimadzu spectrophotometer (Shimadzu) using 0.25-20 μM of enzyme in 200 mM potassium phosphate (pH 8.0) in a quartz cuvette. Samples were incubated at 75° C. for >3 min to ensure a stable temperature was reached. PfTrpB activity (kcat) was measured by monitoring tryptophan formation at 290 nm using Δe290=1.89 mM^−1·cm^−1.
# Purified protein concentrations were determined via the Bradford assay (Bio-Rad). The concentration of PfTrpB^2B9 in heat treated lysates was determined by specific activity. Tryptophan formation was monitored at 75° C. over 1 min at 290 nm using Δε290=1.89 mM^−1 cm^−1·^2 The assay buffer contained 200 mM potassium phosphate pH 8, and 5 μM PLP. Using purified PfTrpB^2B9, we recorded an activity of 0.9 s^−1 with 400 μM Ind and 20 mM Ser. Using this parameter, 375 mg L^−1 of PfTrpB^2B9 active catalyst were prepared as a heat-treated lysate.
# [2] = molecular target: T1, PfTrpA; format: biochemical; conditions: percent of its own activity
# [3] = system: PfTrpA; format: biochemical, Pyrococcus furiosus
# [4] = Thermostability T50 (temperature of half-maximal activity after incubation for 1 h); format: physicochemical; conditions: for T50: temperature of half-maximal activity after incubation for 1 h
# [5] = Substrate selectivity: relative rate of NCAA production with L-serine and indole analogs (UHPLC-MS); format: biochemical
# Experimental: engineered TrpB enzymes. (A) Indole analogs that have been reported to react with StTrpS were tested for reactivity with the PfTrpB, PfTrpS, and PfTrpB^0B2 enzymes. The nucleophilic atom is indicated with a gray circle. (B) Relative activities of enzyme complex PfTrpS (black) and PfTrpB^0B2 (gray) compared with PfTrpB. Reactions performed in duplicate with 20 mM of each substrate and varying enzyme concentrations to ensure incomplete conversion after 1 h. Products were later confirmed in scaled-up reactions using PfTrpB^0B2.
# Substrate Selectivity. The relative rate of NCAA production was measured using 20 mM L-serine and 20 mM indole analog (FIG. 4A) in 200 mM potassium phosphate (pH 8.0) with 5% (vol/vol) DMSO. Reactions were incubated at 75° C. for 1 h, quenched, and the relative rate of production formation was measured by comparing the ratio of the product peaks measured via ultra HPLC-MS (UHPLC-MS) Agilent 1290 with 6140 MS detector at 280 nm and then normalizing for the enzyme concentration.
# [6] = Total turnovers of β-MeTrp formation from L-threonine and indole; format: biochemical; conditions: for Turnovers: 1 μM purified enzyme, 20 mM each L-threonine and indole, 24 h at 75° C.; for turnovers (TTN) of β-MeTrp production: purified enzyme, 24 hours
# Experimental: Total Turnover Number (TTN) determination. Measurements were made using HPLC and LC-MS instruments. The amount of Trp formed was measured at 280 nm using a standard curve with trichlorobenzene as internal standard. […] This same technique was used to determine the TTN of the PfTrpB^2B9 reaction with different nucleophiles. […] […] Before addition of enzyme, all reagents were transferred into a Coy anaerobic chamber with <1 ppm O2 to rapidly exchange the atmosphere in the headspace of the vials to 95/5% N2/H2, which limits competing non-catalytic oxidation of indoles. Enzyme was added in the anaerobic environment with varied catalyst loading to ensure a robust product signal in subsequent analysis. Reaction vessels were capped before being removed from the anaerobic chamber and incubated in a 75° C. water bath for 24 hours. Reactions were quenched the next day by addition of 1 volume (150 μL) of 100% ACN, mixing, and allowing to rest at room temperature for 10 min. Quenched solutions were then diluted 5-fold with 40% ACN in water and analyzed via LC-MS.
# To identify the best parent enzyme for optimization, we first measured production of β-MeTrp using purified enzymes from each generation in the evolution if PfTrpB^0B2.
# [7] = molecular target: T2, PfTrpA; format: biochemical; conditions: Table 1, values for PfTrpB reported here
# [8] = Rescreen of library hits for β-MeTrp formation (heat-treated lysate, HPLC); format: biochemical; conditions: random mutagenesis library, parent PfTrpB^4D11, 60 min reaction at 75° C.
# Experimental: High-throughput screening. For high-throughput expression, BL21 E. cloni Express cells carrying PfTrpB^4D11 and variant plasmids were grown in 96-well deep well plates in 300 μL TBamp at 37° C. and 80% humidity with shaking at 250 rpm overnight. TBamp expression cultures (630 μL) were inoculated with 20 μL of the overnight cultures and continued to grow at 37° C. and 80% humidity with shaking at 250 rpm for 3 h. Expression was induced with the addition of ITPG to a final concentration of 1 mM to pre-chilled (20 min on ice-water bath) cultures. The expression continued for another 20 h at 20° C. with shaking at 250 rpm. Cells were then centrifuged at 4000 g for 10 min and frozen at −20° C. over night. […] The reactions were then arrested by incubation in an ice-water bath, and the amount of β-MeTrp formed was recorded at 290 nm with a plate reader (Tecan Infinite M200).
# Cultures of each hit containing missense mutations were grown in triplicate on 5 mL scale and expression and lysis proceeded in the same manner as described in the Cloning, Expression and Purification section above. Reactions using 10 μM protein as heat-treated lysate (determined by Bradford assay) and 20 mM each substrate were run for 1 h at 75° C. and quenched by dilution to 50% ACN.
# [9] = Table 1, published values; cited from earlier work
Molecule,kcat change with TrpA [3],T50 [4],Turnovers [6],turnovers (TTN) of β-MeTrp production [6],other results
B1,0.04,87 °C,180,,kcat higher than PfTrpS [1]: threefold; activity when PfTrpA was added [2]: 4%; activity relative to PfTrpB on the substrate panel ([5]; all nucleophiles tested): substantial increase in activity; rate relative to PfTrpS ([5]; indazole (5)): three; rate relative to PfTrpS ([5]; indoline (6)): approximately six
B2,3.2,95 °C,66,66,kcat change with TrpA [7]: 3.2; Thermal stability indicators: T50 ([4]; Table 1): 94.7 ± 1.2
B3,0.3,84 °C,660,~420,Fold Improvement (increase in β-MeTrp formation relative to parent) [8]: 1.0 (parent)
B4,0.34,95 °C,420,,enhancement of β-MeTrp activity relative to wild-type PfTrpB [6]: approximately 6 fold
B5,,,,,kcat change with TrpA [9]: 2.4

# Source: patent US12534748B2, “Engineered beta-subunit of tryptophan synthase for production of non-canonical amino acids” (California Institute of Technology, priority 2015, dated 2026)
